PMC10672810, “Research of Multicopper Oxidase and Its Degradation of Histamine in Lactiplantibacillus plantarum LPZN19” (Microorganisms, 2023)

How the values were obtained:
[1] = substrate: NCCc1c[nH]cn1; assay: histamine degradation monitored by LC-MS; type: biochemical, Lactiplantibacillus plantarum; conditions: 50 °C, pH not stated for this assay
[2] = substrate: CCn1c(=NN=c2sc3cc(S(=O)(=O)O)ccc3n2CC)sc2cc(S(=O)(=O)O)ccc21; assay: ABTS oxidation, visible absorption, Lineweaver-Burk; type: biochemical, Lactiplantibacillus plantarum; conditions: MES buffer, pH 3.5, 50 °C, 2 h
From the text: ABTS oxidation, visible absorption, Lineweaver-Burk on MCO (multicopper oxidase)

B1: MCO (multicopper oxidase) (Lactiplantibacillus plantarum WCFS1) (protein)
chain: MAKKVYTDYFFDEPAYNTHDGGYIPLVTPKVEPQPLAIPPLLKPDRQTDTDDYYTVTAQESETQFLPGKKTKTWGYNAGFLGQTIVFRNGKQTHIDLENKLPELTTFHWHGLNVPGPITDGGCHAPVYPGETNHIDFKVHQPAATTWLHAHPCPSTATQVWKGLATMVIIKDDVEDQLPLPRNYGVDDIPLVLQDREFHDDNQFDYRADYDPDGVQGHTALVNGTVNPYFDVTTQRVRLRILDGSNRREWRLHFNDDLEFAQVASDGGILPAPVYMTKVMMTCAERDEIVVDFGQYQPGDEVTLMTDDTPLCRFRIKSFVPDDTKLPEHLVDIPDETPTPDLPVRTITMDGMDDEVALDGKKFDMSRIDARQKVGDVAIWEIRNTNSTENGMVHPFHVHGTQFRVLARNDGPVYPNEHGLKDTVGVNPGETVRIKVKFELTGVYMYHCHIIEHEDGGMMAQIESYDPQHPQTYHLMDMDTLRNAFAKEQGIKPEDVWMPGM
notes: full length, 501 residues, no signal peptide; pET-28a EcoRI/HindIII, N-terminal His-tag (about 67 kDa on SDS-PAGE), E. coli BL21 (DE3), Ni-NTA; primers imply N-terminus MAKKVYTD and C-terminus WMPGM; peptides EFHDDNQFDYR, GLATMVIIKDDVEDOLPLPR
Km [1]: 2070 ± 180 µM | Km [2]: 2180 ± 130 µM | kcat [2]: 3.77 ± 0.09 s⁻¹ | kcat/Km [2]: 1730 ± 160 M⁻¹ s⁻¹
